# T1: cynomolgus monkey DR5 protein with deletion of amino acids 185-213 and death domain loss-of-function mutation … (cynomolgus monkey (Macaca fascicularis))
# T1 construct: Transiently expressed on CHO cells; also called Cyno DR5Mfdel-K420N; cynomolgus DR5-transfected CHO
# T1 chain: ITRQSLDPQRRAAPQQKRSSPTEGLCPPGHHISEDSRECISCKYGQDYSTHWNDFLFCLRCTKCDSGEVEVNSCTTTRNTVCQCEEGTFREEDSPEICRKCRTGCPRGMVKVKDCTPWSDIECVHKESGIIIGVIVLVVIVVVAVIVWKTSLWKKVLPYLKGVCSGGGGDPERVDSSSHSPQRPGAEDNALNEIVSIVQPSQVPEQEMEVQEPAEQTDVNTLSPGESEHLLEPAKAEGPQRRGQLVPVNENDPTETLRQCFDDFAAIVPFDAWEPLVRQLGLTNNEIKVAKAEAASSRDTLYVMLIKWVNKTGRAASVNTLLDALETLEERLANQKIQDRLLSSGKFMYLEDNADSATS
# B1: IgG1-DR5-CONA-K409R (antibody, V domains shown)
# VH: QVQLQESGPGLVKPSQTLSLTCTVSGGSISSGDYFWSWIRQLPGKGLECIGHIHNSGTTYYNPSLKSRVTISVDTSKKQFSLRLSSVTAADTAVYYCARDRGGDYYYGMDVWGQGTTVTVSS
# VL: EIVLTQSPGTLSLSPGERATLSCRASQGISRSYLAWYQQKPGQAPSLLIYGASSRATGIPDRFSGSGSGTDFTLTISRLEPEDFAVYYCQQFGSSPWTFGQGTKVEIK
# notes: Expressed as IgG1,kappa with K409R (EU); also called IgG1-CONA-K409R; conatumumab variant
# B2: IgG1-hDR5-05-F405L (antibody, name in EU numbering)
# heavy: not shown
# light: DIQLTQSPSSLSASVGDRVTITCSASSSVSYMYWYQQKPGKAPKPWIYRTSNLASGVPSRFSGSGSGTDFTLTISSLQPEDFATYYCQQYHSYPPTFGGGTKVEIKRTVAAPSVFIFPPSDEQLKSGTASVVCLLNNFYPREAKVQWKVDNALQSGNSQESVTEQDSKDSTYSLSSTLTLSKADYEKHKVYACEVTHQGLSSPVTKSFNRGEC
# notes: IgG1,kappa; F405L is counted by EU numbering, not on the entry; also called humanized DR5-05
# B3: IgG1-hDR5-05-E430G (antibody)
# heavy: not shown
# light: B2 light
# notes: IgG1,kappa
# B4: IgG1-hDR5-05-N55D-F405L (antibody, V domains shown)
# VH: QVQLVQSGAEVKKPGASVKVSCKASGFNIKDTHMHWVRQAPGQRLEWIGRIDPADGNTEYDQKFQGRVTITVDTSASTAYMELSSLRSEDTAVYYCARWGTNVYFAYWGQGTLVTVSS
# VL: DIQLTQSPSSLSASVGDRVTITCSASSSVSYMYWYQQKPGKAPKPWIYRTSNLASGVPSRFSGSGSGTDFTLTISSLQPEDFATYYCQQYHSYPPTFGGGTKVEIKR
# notes: IgG1,kappa; deamidation-mimicking variant
# B5: IgG1-DR5-chTRA8-F405L (antibody, name in EU numbering, V domains shown)
# VH: EVMLVESGGGLVKPGGSLKLSCAASGFTFSSYVMSWVRQTPEKRLEWVATISSGGSYTYYPDSVKGRFTISRDNAKNTLYLQMSSLRSEDTAMYYCARRGDSMITTDYWGQGTTLTVSS
# VL: DIVMTQSHKFMSTSVGDRVSITCKASQDVGTAVAWYQQKPGQSPKLLIYWASTRHTGVPDRFTGSGSGTDFTLTISNVQSEDLADYFCQQYSSYRTFGGGTKLEIKR
# notes: F405L is counted by EU numbering; also called IgG1-chTRA8-F405L
# Assays:
# [1] = molecular target: T2, DR5ECD-FcHistag (human); test: crossblock sandwich ELISA, antibody coated, competitor IgG1-DR5-chTRA8-F405L
# T2 construct: 453 is the counted length of the printed entry; also called DR5ECD-FcHisCtag; DRSECD-FcHistag
# [2] = molecular target: T3, murine (Mus musculus) DR5, full-length (mouse, UniProt Q9QZM4 53-381); test: flow cytometry on transfected CHO cells (FIG. 5D)
# T3 construct: also called mouse DR5
# [3] = molecular target: T2, DR5ECD-FcHistag; test: crossblock sandwich ELISA, antibody coated, competitor IgG1-hDR5-01-E430G
# [4] = molecular target: T1, cynomolgus monkey DR5 protein with …; test: flow cytometry on cynomolgus DR5-transfected CHO cells, four experiments (SD 0.084)
# [5] = molecular target: T4, human DR5 (death receptor 5), full-length (human, UniProt O14763 56-440); test: flow cytometry on HCT 116 cells
# T4 construct: also called TRAILR2; CD262
# [6] = molecular target: T2, DR5ECD-FcHistag; test: crossblock sandwich ELISA, antibody coated, competitor IgG1-DR5-CONA-K409R
binder,measurement,setting,value
B1,binding result,[1],binds
B2,binding result,[2],no binding (tested: 10 µg/mL)
B3,binding result,[3],binds
same,EC50,[4],0.17 µg/mL
B4,binding result,[5],binds
B5,binding result,[6],binds

# From patent publication US20210324096A1 (Genmab, published 2021)
